Assays:
[1] = molecular target: T1, anti-human LIGHT-biotin antibody (MSD detection); assay: MSD sandwich 'Dual - Antibody': capture anti-TIGIT, TIGIT-Fc-LIGHT titrated, detection anti-LIGHT (same curve as the capture row)
T1 construct: also called anti-LIGHT antibody

[2] = molecular target: T2, recombinant human LTβR (human, UniProt P36941 31-227, limits assumed); assay: BLI (Octet-Red96), tagged rhLTβR immobilised on biosensor
T2 construct: Bought from Acro Biosystems or Sino Biological; construct limits and tag not specified; also called rhLTβR; TNFRSF3
T2 sequence (P36941 31-227 limits assumed): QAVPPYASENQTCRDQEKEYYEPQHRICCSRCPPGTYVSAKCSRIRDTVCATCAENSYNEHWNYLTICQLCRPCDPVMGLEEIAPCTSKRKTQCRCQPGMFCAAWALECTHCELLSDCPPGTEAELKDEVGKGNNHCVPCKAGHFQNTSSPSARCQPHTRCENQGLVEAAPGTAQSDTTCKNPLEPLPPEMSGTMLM
Experimental: (§1) Bio-Layer interferometry-based affinity testing was used to determine the on-rates (Ka), off-rates (Kd) and binding affinities (KD) of the TIGIT-Fc-LIGHT chimeric protein to intended binding targets, using histidine- or biotin-tagged versions of the human recombinant proteins (PVR, HVEM, LTβR, PVRL2, PVRL3, and Nectin-4; purchased from Acro Biosystems or Sino Biological). Commercially available or internally produced single-sided fusion protein controls (TIGIT-Fc and Fc-LIGHT) were also tested in parallel. Targets were immobilized at a concentration of 3 μg/mL in Kinetics buffer (PBS/0.1% Tween-20/1% BSA; pH7.0) to anti-pentaHis or streptavidin coated biosensors. Direct binding of fusion proteins to recombinant target proteins was performed on an Octet-Red96 BLI instrument, using association and dissociation times of 90 and 120 seconds, respectively.
(§2) Protein-protein interactions (PPI) between the fusion proteins and their cognate binding partners were characterized using both recombinant protein and cell-based methods. First, bio-layer interferometry-based affinity testing was used to assess the kinetics of receptor/ligand binding.

[3] = molecular target: T3, recombinant human PVR (human, UniProt P15151 21-343); assay: MSD sandwich 'Dual - Potency #1': capture LTβR-Fc, TIGIT-Fc-LIGHT titrated, detection PVR-Biotin (same curve as the capture row)
T3 construct: The tagged PVR of the BLI assay and the biotinylated PVR used as detector in MSD are treated as one molecule; also called rhPVR; CD155
T3 sequence (looked up): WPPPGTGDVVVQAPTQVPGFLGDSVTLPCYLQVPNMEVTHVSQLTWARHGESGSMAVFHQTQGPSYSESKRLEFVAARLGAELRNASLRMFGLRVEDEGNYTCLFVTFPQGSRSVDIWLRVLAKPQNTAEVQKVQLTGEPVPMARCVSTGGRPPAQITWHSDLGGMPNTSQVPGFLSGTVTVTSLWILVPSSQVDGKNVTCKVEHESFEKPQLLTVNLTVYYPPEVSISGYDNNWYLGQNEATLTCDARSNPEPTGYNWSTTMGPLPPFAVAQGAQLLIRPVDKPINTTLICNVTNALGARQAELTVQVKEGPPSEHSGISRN
Experimental: For the TIGIT-Fc-LIGHT chimeric protein; MSD Multi-Array plates (MSD) were pre-coated overnight with recombinant human LTβR-Fc or HVEM-Fc (Acro Biosystems) at 4° C. The plates were blocked with Diluent 100 (MSD) for at least one hour at room temperature on a shaker. After washing, analysis samples were added and then serially diluted 3-fold and loaded in duplicate wells to generate 8-10 test concentrations. The bound the TIGIT-Fc-LIGHT chimeric protein was detected with recombinant biotinylated human PVR (Acro Biosystems). Streptavidin conjugated to ruthenium (MSD), was added to bind the biotin labeled detector. MSD Gold Reading buffer (MSD) was added to the plate, and upon application of an electrical charge, an electrochemiluminescent signal was produced and detected with the MSD MESO QuickPlex SQ 120MM, Model 1300, to generate relative light units (RLU). Analogous assays were performed using mTIGIT-Fc-LIGHT and murine recombinant PVR, HVEM, and […] (Acro Biosystems).
The binding of the TIGIT-Fc-LIGHT chimeric protein to its receptors was characterized by Meso Scale Discovery (MSD) ELISA assays. […] Binding of the chimeric protein to LTβR-Fc was detected using an PVR-Biotin and using an electrochemiluminescence (ECL) readout. […] Binding of the chimeric protein to HVEM-Fc was detected using an PVR-Biotin and using an electrochemiluminescence (ECL) readout. […]

[4] = molecular target: T4, recombinant human CD113 (PVRL3) (human, UniProt Q9NQS3 58-404); assay: BLI (Octet-Red96), tagged rhCD113 (PVRL3) immobilised on biosensor
T4 construct: also called rhCD113 (PVRL3); Nectin-3
T4 sequence (Q9NQS3 58-404 limits assumed): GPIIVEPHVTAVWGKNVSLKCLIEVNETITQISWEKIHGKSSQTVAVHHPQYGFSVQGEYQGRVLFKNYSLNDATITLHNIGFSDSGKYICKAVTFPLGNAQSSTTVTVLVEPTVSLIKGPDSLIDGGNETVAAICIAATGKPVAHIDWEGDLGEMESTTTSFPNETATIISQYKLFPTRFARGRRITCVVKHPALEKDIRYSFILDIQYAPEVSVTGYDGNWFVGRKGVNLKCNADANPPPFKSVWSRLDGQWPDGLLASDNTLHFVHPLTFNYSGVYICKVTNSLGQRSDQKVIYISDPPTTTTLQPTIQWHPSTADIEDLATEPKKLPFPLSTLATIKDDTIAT
Experimental: as §1

[5] = molecular target: T2, recombinant human LTβR; assay: BLI (Octet), affinity for recombinant human LTβR compared with Fc-LIGHT
Experimental: as §1, §2

[6] = molecular target: T5, cell surface human PVR (CHO-K1/hPVR cells) (human, UniProt P15151 21-417); assay: flow cytometry, CHO-K1 cells stably expressing human PVR; cell surface PVR
T5 construct: whole, on cells; also called cell surface PVR; CD155(PVR)
T5 sequence (looked up): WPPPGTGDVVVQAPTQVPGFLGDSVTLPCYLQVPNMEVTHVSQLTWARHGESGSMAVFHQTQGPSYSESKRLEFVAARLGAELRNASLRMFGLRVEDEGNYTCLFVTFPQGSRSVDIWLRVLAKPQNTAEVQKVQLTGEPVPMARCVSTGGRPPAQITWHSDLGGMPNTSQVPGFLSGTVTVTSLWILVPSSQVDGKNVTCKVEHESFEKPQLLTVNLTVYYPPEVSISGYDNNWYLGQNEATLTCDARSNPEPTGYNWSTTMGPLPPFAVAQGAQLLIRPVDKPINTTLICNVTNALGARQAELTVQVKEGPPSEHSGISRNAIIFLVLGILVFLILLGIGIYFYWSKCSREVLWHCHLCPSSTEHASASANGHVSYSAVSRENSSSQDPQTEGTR

B1: human TIGIT-Fc-LIGHT chimeric protein (Fc fusion)
chain: MMTGTIETTGNISAEKGGSIILQCHLSSTTAQVTQVNWEQQDQLLAICNADLGWHISPSFKDRVAPGPGLGLTLQSLTVNDTGEYFCIYHTYPDGTYTGRIFLEVLESSVAEHGARFQIPSKYGPPCPPCPAPEFLGGPSVFLFPPKPKDQLMISRTPEVTCVVVDVSQEDPEVQFNWYVDGVEVHNAKTKPREEQFNSTYRVVSVLTVLHQDWLSGKEYKCKVSSKGLPSSIEKTISNATGQPREPQVYTLPPSQEEMTKNQVSLTCLVKGFYPSDIAVEWESNGQPENNYKTTPPVLDSDGSFFLYSRLTVDKSRWQEGNVFSCSVLHEALHNHYTQKSLSLSLGKIEGRMDLQLHWRLGEMVTRLPDGPAGSWEQLIQERRSHEVNPAAHLTGANSSLTGSGGPLLWETQLGLAFLRGLSYHDGALVVTKAGYYYIYSKVQLGGVGCPLGLASTITHGLYKRTPRYPEELELLVSQQSPCGRATSSSRVWWDSSFLGGVVHLEAGEKVVVRVLDERLVRLRDGTRSYFGAFMV
notes: Said to exist as a hexamer (dimer of trimers); Glycosylated; also called hTIGIT-Fc-LIGHT; TIGIT-Fc(IgG4)-LIGHT
EC50 [1]: 1.15 nM
Kd [2]: 3.52 nM
koff [2]: 7.44e-05 s⁻¹
kon [2]: 21200 M⁻¹ s⁻¹
EC50 [3]: 28.3 nM
koff [4]: 0.00126 s⁻¹
kon [4]: 130000 M⁻¹ s⁻¹
fold affinity relative to Fc-LIGHT control [5]: ~8 fold
EC50 [6]: 35.4 nM

Source: US20240016892A1 (SHATTUCK LABS, published 2024)
